Measured values: the supplement of paper PMC10567573

B1: PLD5 (parent)
chain: WIVDKQHVYIGSAGLDWQSLGQMK

Variants of: B1
Experiment: protein stability index of a GFP-peptide fusion (GPS, HEK-293T) (PSI 1-6); higher = more stable
Details: c terminus: a fixed tail appended
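Further: lentivirally expressed fusions sorted by FACS into six bins by GFP to DsRed ratio, PSI derived from sequencing read proportions per bin multiplied by bin number.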

Protein stability index: each site, then its substitutions
Q6: T 1.84 | M 2.63 | W 4.19 | V 2.08 | C 1 | G 3.38 | S 1.37 | D 1.4 | Y 1.41 | E 1.95 | K 1.66 | F 2.05 | H 2.1 | R 2.3 | P 1.5 | L 2.87 | N 1.58 | A 1.51
Y9: M 1.58 | I 1.45 | L 1.64 | Q 2.14 | C 1.54 | R 1.41 | E 2.13 | S 2.01 | G 1.96 | F 3.1 | P 2.48 | V 1.93 | D 1.91 | K 1.33 | W 1.75 | H 1.75 | A 2.33 | T 2.1 | N 1.81
K5: R 1.94 | Y 1.61 | P 1.74 | F 4.11 | A 4.17 | S 1.07 | D 1.42 | E 2.42 | H 1.55 | G 1.8 | W 2.34 | N 2.12 | I 3.22 | T 2.98 | C 2.29 | Q 1.74
I10: V 1.92 | N 2.16 | R 1.65 | H 1.93 | E 2.22 | A 1.85 | P 1.79 | Q 1.83 | M 2.11 | W 1.96 | F 2.26 | K 2.27 | T 1.81 | D 2.41 | G 1.64 | C 1.64 | Y 1.73 | L 2.41 | S 1.73
D4: N 3.09 | G 1.39 | Q 1.45 | S 2.29 | E 1.39 | V 3.83 | R 3.94 | M 2.12 | P 1.13 | H 2.37 | T 4.09 | L 1.84 | W 1.96 | K 4.58 | A 1.83
V8: R 4.04 | W 2.43 | K 1.9 | E 2.01 | T 1.81 | G 1.35 | D 1.5 | F 1.92 | I 2.31 | Q 2.11 | M 2.45 | L 1.93 | A 1.66 | Y 1.25 | S 1.69 | C 1.58 | N 2.01 | P 2.06 | H 1.54
I2: C 1.83 | M 1.5 | V 1.39 | S 2.08 | Y 1.82 | W 1.86 | T 1.46 | L 1.88 | D 2.16 | P 2.65 | N 1.61 | F 1.64 | K 1.9 | H 1.88 | E 2.18 | A 2.32 | Q 2.48 | G 1.87 | R 2.17
G11: H 1.92 | K 1.26 | D 1.46 | E 2.82 | F 2.11 | A 1.69 | I 2.71 | C 2.07
H7: D 1.98 | C 1.37 | R 2.36 | E 1.42 | N 1.48 | G 2.17 | S 2.26 | A 2.63 | K 1.54 | Y 2.6 | W 3.59 | T 2.26 | Q 1.96 | P 2.27 | M 2.6
V3: E 2.09 | K 1.84 | T 1.59 | F 1.96 | D 2.02 | Q 1.83 | S 2.09 | I 2.64 | C 1.6 | G 2.1 | H 1.74 | P 1.97 | W 2.13 | R 1.52 | M 1.5 | A 1.86 | L 2.01 | Y 1.56 | N 2.35
